Results published in patent publication US20240148887A1 (MERSANA THERAPEUTICS, published 2024).

T1: Human NaPi2b-derived peptide (QINVTVPSTANCTSPSLCWTDGIQNWTMKN) (human)
T1 construct: no modification is printed there; also called NaPi2b peptide
T1 peptide: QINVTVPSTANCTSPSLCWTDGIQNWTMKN

T2: NaPi2b on the cell surface of OVCAR3 human ovarian carcinoma cells (human, UniProt O95436 1-690)
T2 construct: also called sodium-dependent phosphate transport protein 2B; SLC34A2
T2 sequence: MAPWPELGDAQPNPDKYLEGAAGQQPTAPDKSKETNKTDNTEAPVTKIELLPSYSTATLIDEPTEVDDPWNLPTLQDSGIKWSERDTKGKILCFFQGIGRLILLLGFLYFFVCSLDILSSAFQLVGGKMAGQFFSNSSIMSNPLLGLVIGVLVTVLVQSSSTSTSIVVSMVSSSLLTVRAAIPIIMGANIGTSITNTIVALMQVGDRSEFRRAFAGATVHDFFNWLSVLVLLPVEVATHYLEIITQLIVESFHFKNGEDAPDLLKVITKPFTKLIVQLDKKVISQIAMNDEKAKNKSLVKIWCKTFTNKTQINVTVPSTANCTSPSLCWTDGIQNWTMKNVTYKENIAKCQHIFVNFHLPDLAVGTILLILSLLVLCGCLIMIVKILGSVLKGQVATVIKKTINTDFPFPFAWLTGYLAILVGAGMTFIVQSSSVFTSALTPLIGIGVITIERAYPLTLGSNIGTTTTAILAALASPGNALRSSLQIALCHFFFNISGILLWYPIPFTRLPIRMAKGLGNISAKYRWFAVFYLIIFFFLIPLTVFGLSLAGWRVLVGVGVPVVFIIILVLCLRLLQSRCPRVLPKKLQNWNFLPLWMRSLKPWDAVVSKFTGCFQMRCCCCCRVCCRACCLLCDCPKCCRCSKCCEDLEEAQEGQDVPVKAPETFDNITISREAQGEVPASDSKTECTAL

T3: NaPi2b-derived peptide from cynolmogus monkey ([Cyc(12,18)]Ac-QMNVTVPSMANCTSPSLCWTDGIQIWTMKN-amide) (cynomolgus monkey, [Cyc(12,18)] cyclisation between residues 12 and 18; N-terminal acetyl (Ac-); C-terminal amide)
T3 peptide: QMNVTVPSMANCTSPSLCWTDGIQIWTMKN

T4: NaPi2b-derived peptide from human ([Cyc(12,18)]Ac-QINVTVPSTANCTSPSLCWTDGIQNWTMKN-amide) (human, [Cyc(12,18)] cyclisation between residues 12 and 18; N-terminal acetyl (Ac-); C-terminal amide)
T4 peptide: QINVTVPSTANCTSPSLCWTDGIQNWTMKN

T5: NaPi2b-derived peptide from rat ([Cyc(12,18)]Ac-EENVTVPSPDNCTSPSYCWTDGIQTWTIQN-amide) (rat, [Cyc(12,18)] cyclisation between residues 12 and 18; N-terminal acetyl (Ac-); C-terminal amide)
T5 peptide: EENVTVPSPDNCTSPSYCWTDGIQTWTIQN

T6: NaPi2b-derived peptide from mouse ([Cyc(12,18)]Ac-EMNVTVPSTDNCTSPSYCWTDGIQTWTIQN-amide) (mouse, [Cyc(12,18)] cyclisation between residues 12 and 18; N-terminal acetyl (Ac-); C-terminal amide)
T6 peptide: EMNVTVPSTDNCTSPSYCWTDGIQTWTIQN

T7: Biotinylated NaPi2b-derived peptide (QINVTVPSTANCTSPSLCWTDGIQNWTMKN-biotin; Genscript) (C-terminal biotin)
T7 construct: also called NaPi2b-derived peptide antigen; immobilized NaPi2b-derived peptide
T7 peptide: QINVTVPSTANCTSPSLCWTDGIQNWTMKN

T8: FcγRIIA (H167) (human, UniProt P12318 36-218, limits assumed)
T8 construct: H167 is printed as the allelic form
T8 sequence (looked up): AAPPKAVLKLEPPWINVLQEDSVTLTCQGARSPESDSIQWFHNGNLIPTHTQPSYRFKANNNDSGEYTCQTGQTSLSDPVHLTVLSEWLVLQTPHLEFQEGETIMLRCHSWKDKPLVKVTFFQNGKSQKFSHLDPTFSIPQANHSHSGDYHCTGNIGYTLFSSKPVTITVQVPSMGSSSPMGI


Key:
[1] = target: T1, Human NaPi2b-derived peptide …; experiment: ELISA, peptide coated on plate, anti-human IgG-HRP, four-parameter fit; mean of 2 experiments
Description: (§3) Human NaPi2b-derived peptide ([sequence]) was coated onto the surface of each well of a 96-well plate by incubation with the peptide (1 μg/mL in PBS), overnight at +4° C. The wells were then blocked by incubation with BSA (3% in PBS, containing 0.1% Tween 20 (PBST)) for 1 hour at room temperature. […] The unbound test article was removed by washing with PBST (3×). A secondary anti-human IgG conjugated to HRP (0.16 μg/mL in PBST) was incubated in each well for 1 hour. The unbound secondary antibody was removed by washing with PBST (3×). The HRP substrate, TMB, was added to each well and incubated until a blue color was visible. The reaction was quenched by the addition of sulfuric acid (0.2 N, 100 μL). […] The values were plotted using GraphPad Prism software. EC₅₀ values were determined by four-parameter curve fitting.

[2] = target: T2, NaPi2b on the cell surface of OVCAR3 …; experiment: flow cytometry on OVCAR3 cells, Alexa Fluor 647 anti-human IgG, median fluorescence, four-parameter fit; mean of 2 experiments
Description: The detached cells were triturated in media, and plated in 96 well U-bottom plates, at a density of 50,000 cells in medium (75 μL). […] The cells were washed with ice cold PBS (3×), and resuspended in ice cold PBS with 1% paraformaldehyde (100 L). The fluorescence per cell was determined by analyzing 5,000 cells for each treatment on the flow cytometer. The median fluorescence value for each treatment was plotted, and EC₅₀ values were calculated with Graphpad Prism software by four-parameter curve fitting.

[3] = target: T3, NaPi2b-derived peptide from cynolmogus …; experiment: ELISA, cyclic peptide coated on plate; mean of 2 experiments
[4] = target: T4, NaPi2b-derived peptide from human …; experiment: as above
[5] = target: T5, NaPi2b-derived peptide from rat …; experiment: as above
[6] = target: T6, NaPi2b-derived peptide from mouse …; experiment: as above
[7] = target: T7, Biotinylated NaPi2b-derived peptide …; experiment: BLI (Octet), biotinylated peptide on streptavidin sensors, 25 C; mean of 4 experiments
Description: Biotinylated NaPi2b-derived peptide ([…]-biotin; Genscript) was immobilized to streptavidin octet sensors in kinetics buffer (10×). Sensors were then blocked in kinetics buffer (10×) with biocytin (50 μg/mL).

[8] = target: FcγRIIIA (V176) (human, UniProt P08637 17-208, limits assumed); experiment: BLI (Octet QKe), test article on anti-human Fab-CH1 (FAB2G) sensors, receptor in solution, 25 C, 1:1 global fit; mean of 2 experiments
Description: (§1) Dissociation was performed for 15 minutes. Binding constants were calculated with the global fit averages of the traces using a 1:1 model. […] Kinetic parameters were calculated using Octet software (ForteBio).

[9] = target: T9, human FcRn protein (Immunitrack) (human, UniProt P55899 24-297; P61769 21-119, limits assumed); experiment: BLI (Octet QKe), test article on anti-human Fab-CH1 (FAB2G) sensors, FcRn in solution, pH 6.0, 1:1 global fit; mean of 2 experiments
T9 construct: also called FcRn receptor
Description: as §1
(§2) After association, sensors were washed for 5 minutes in FcRn binding buffer (Boston Bioproducts; diluted to 100 mM NaH₂PO₄, 0.05% Tween 20, pH 6.0). Association and dissociation steps were performed in FcRn binding buffer. Association measurements to FcRn protein (Immunitrack) was measured at 7 concentrations (from 1 μM to […], 2-fold serial dilutions) for 5 minutes. Dissociation was performed for 15 minutes. Binding constants were calculated with the global fit averages of the traces using a 1:1 model.

[10] = target: T8, FcγRIIA (H167); experiment: BLI (Octet QKe), test article on anti-human Fab-CH1 (FAB2G) sensors, receptor in solution, 25 C, 1:1 global fit; mean of 3 experiments
Description: as §1

[11] = target: T10, FcγRI (human, UniProt P12314 16-288, limits assumed); experiment: as above
T10 construct: also called Fc receptor FcγRI
Description: as §1

[12] = target: T9, human FcRn protein (Immunitrack); experiment: BLI (Octet QKe), test article on anti-human Fab-CH1 (FAB2G) sensors, FcRn in solution, pH 6.0, 1:1 global fit; mean of 5 experiments
Description: as §1, §2

[13] = target: T1, Human NaPi2b-derived peptide …; experiment: ELISA, peptide coated on plate, anti-human IgG-HRP, four-parameter fit; mean of 3 experiments
Description: as §3

[14] = target: T8, FcγRIIA (H167); experiment: BLI (Octet QKe), test article on anti-human Fab-CH1 (FAB2G) sensors, receptor in solution, 25 C, 1:1 global fit; mean of 2 experiments
Description: as §1

[15] = target: T10, FcγRI; experiment: as above
Description: as §1

T10 sequence (P12314 16-288 limits assumed): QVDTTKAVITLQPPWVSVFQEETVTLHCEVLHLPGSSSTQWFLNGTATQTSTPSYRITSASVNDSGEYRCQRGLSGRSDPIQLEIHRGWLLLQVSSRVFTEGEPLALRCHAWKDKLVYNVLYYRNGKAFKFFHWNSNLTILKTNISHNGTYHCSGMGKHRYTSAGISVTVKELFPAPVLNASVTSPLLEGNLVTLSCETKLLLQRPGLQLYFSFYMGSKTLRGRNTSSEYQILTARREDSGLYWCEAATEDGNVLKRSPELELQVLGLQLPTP
T9 sequence (P55899 24-297 limits assumed, chain 1 of 2): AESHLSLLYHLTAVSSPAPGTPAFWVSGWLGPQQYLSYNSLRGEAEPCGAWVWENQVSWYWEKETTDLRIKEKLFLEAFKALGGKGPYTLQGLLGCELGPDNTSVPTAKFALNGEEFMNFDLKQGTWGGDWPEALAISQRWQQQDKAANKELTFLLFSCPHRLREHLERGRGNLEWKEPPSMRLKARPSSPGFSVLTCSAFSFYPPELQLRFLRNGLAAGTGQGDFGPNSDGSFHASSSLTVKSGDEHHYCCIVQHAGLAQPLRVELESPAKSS
T9 sequence (P61769 21-119 limits assumed, chain 2 of 2): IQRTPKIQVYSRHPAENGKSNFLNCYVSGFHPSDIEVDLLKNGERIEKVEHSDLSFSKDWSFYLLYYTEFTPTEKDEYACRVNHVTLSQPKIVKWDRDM
FcγRIIIA (V176), sequence (P08637 17-208 F176V limits assumed): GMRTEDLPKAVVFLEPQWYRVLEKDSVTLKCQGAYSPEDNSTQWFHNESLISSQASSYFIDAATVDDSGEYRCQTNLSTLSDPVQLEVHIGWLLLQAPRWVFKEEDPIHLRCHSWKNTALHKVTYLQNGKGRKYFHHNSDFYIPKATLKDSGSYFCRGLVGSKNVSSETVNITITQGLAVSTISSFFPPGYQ

Row | Binder | EC50 [2] | EC50 [3] | EC50 [4] | EC50 [5] | EC50 [6] | Kd [7] | koff [7] | kon [7] | Kd [8] | koff [8] | kon [8] | Kd [11] | koff [11] | kon [11] | Kd [12] | koff [12] | kon [12] | EC50 [13] | further results
1 | XMT-1535 (anti-NaPi2b antibody) (antibody, human IgG1, kappa, Unconjugated IgG1 antibody) heavy: not shown light: DIQMTQSPSSLSASVGDRVTITCSASQDIGNFLNWYQQKPGKTVKVLIYYTSSLYSGVPSRFSGSGSGTDYTLTISSLQPEDFATYYCQQYSKLPLTFGQGTKLELKRRTVAAPSVFIFPPSDEQLKSGTASVVCLLNNFYPREAKVQWKVDNALQSGNSQESVTEQDSKDSTYSLSSTLTLSKADYEKHKVYACEVTHQGLSSPVTKSFNRGEC | 11.2 nM | 4.04 nM | 4.43 nM | 4.71 nM | 2.77 nM | 0.0729 nM | 1.27e-05 s⁻¹ | 170000 M⁻¹ s⁻¹ | 641 nM | 0.146 s⁻¹ | 216000 M⁻¹ s⁻¹ | 0.15 nM | 0.000192 s⁻¹ | 1.28e+06 M⁻¹ s⁻¹ |  |  |  |  | EC50 [1]: 1.77 nM; Kd [9]: 2.76 nM; koff [9]: 0.000448 s⁻¹; kon [9]: 160000 M⁻¹ s⁻¹; Kd [10]: 1740 nM; koff [10]: 0.308 s⁻¹; kon [10]: 175000 M⁻¹ s⁻¹
2 | Conjugate 7 (XMT-1535 drug conjugate of Scaffold 6) (antibody, human IgG1, kappa, Scaffold 6 linker-drug (AF-HPA payload) attached by click chemistry to the azido-modified GlcNAc(Fuc)-GalNAc glycan on the asparagine at N297 (N300 of SEQ ID NO: 1 according to claim 40), The glycan was trimmed with Endo SH and extended with an azido sugar; the text prints 6.6) heavy: not shown light: DIQMTQSPSSLSASVGDRVTITCSASQDIGNFLNWYQQKPGKTVKVLIYYTSSLYSGVPSRFSGSGSGTDYTLTISSLQPEDFATYYCQQYSKLPLTFGQGTKLELKRRTVAAPSVFIFPPSDEQLKSGTASVVCLLNNFYPREAKVQWKVDNALQSGNSQESVTEQDSKDSTYSLSSTLTLSKADYEKHKVYACEVTHQGLSSPVTKSFNRGEC | 8.15 nM | 3.83 nM | 3.7 nM | 2.48 nM | 1.79 nM | 0.0828 nM | 1.81e-05 s⁻¹ | 200000 M⁻¹ s⁻¹ |  |  |  | 3.05 nM | 0.00373 s⁻¹ | 1.13e+06 M⁻¹ s⁻¹ | 5.88 nM | 0.000481 s⁻¹ | 86100 M⁻¹ s⁻¹ | 1.44 nM | 
3 | Conjugate 11 (XMT-1535 stochastic conjugate) (antibody, human IgG1, kappa, maleimido scaffold of Scaffold 6 (AF-HPA payload) on cysteines freed by TCEP reduction; stochastic, positions not given, DAR 6.5) heavy: not shown light: DIQMTQSPSSLSASVGDRVTITCSASQDIGNFLNWYQQKPGKTVKVLIYYTSSLYSGVPSRFSGSGSGTDYTLTISSLQPEDFATYYCQQYSKLPLTFGQGTKLELKRRTVAAPSVFIFPPSDEQLKSGTASVVCLLNNFYPREAKVQWKVDNALQSGNSQESVTEQDSKDSTYSLSSTLTLSKADYEKHKVYACEVTHQGLSSPVTKSFNRGEC | 6.56 nM | 4.19 nM | 5 nM | 3.72 nM | 2.26 nM | 0.0813 nM | 1.37e-05 s⁻¹ | 165000 M⁻¹ s⁻¹ | 270 nM | 0.0671 s⁻¹ | 270000 M⁻¹ s⁻¹ |  |  |  | 4.96 nM | 0.00055 s⁻¹ | 126000 M⁻¹ s⁻¹ | 1.05 nM | Kd [14]: 1250 nM; koff [14]: 0.345 s⁻¹; kon [14]: 273000 M⁻¹ s⁻¹; Kd [15]: 0.166 nM; koff [15]: 0.000209 s⁻¹; kon [15]: 1.26e+06 M⁻¹ s⁻¹
